According to US20140161732A1:
Bridge positions count the residues as written; N and C are the ends. Side chains are listed from the residue outwards. * marks the point of attachment. Biotin = O=C1N[C@H]2[C@H](CS[C@H]2CCCCC(=O)*)N1; AEEA = NCCOCCOCC(=O)O

What was measured:
[1] = target: T1, KDR expressed on transiently transfected 293H cells (human), P35968; assay: competition with 125I-VEGF on KDR-transfected 293H cells (mock subtracted), peptide at 30 µM; settings: remark: other sources report otherwise
T1 sequence (P35968 20-1356): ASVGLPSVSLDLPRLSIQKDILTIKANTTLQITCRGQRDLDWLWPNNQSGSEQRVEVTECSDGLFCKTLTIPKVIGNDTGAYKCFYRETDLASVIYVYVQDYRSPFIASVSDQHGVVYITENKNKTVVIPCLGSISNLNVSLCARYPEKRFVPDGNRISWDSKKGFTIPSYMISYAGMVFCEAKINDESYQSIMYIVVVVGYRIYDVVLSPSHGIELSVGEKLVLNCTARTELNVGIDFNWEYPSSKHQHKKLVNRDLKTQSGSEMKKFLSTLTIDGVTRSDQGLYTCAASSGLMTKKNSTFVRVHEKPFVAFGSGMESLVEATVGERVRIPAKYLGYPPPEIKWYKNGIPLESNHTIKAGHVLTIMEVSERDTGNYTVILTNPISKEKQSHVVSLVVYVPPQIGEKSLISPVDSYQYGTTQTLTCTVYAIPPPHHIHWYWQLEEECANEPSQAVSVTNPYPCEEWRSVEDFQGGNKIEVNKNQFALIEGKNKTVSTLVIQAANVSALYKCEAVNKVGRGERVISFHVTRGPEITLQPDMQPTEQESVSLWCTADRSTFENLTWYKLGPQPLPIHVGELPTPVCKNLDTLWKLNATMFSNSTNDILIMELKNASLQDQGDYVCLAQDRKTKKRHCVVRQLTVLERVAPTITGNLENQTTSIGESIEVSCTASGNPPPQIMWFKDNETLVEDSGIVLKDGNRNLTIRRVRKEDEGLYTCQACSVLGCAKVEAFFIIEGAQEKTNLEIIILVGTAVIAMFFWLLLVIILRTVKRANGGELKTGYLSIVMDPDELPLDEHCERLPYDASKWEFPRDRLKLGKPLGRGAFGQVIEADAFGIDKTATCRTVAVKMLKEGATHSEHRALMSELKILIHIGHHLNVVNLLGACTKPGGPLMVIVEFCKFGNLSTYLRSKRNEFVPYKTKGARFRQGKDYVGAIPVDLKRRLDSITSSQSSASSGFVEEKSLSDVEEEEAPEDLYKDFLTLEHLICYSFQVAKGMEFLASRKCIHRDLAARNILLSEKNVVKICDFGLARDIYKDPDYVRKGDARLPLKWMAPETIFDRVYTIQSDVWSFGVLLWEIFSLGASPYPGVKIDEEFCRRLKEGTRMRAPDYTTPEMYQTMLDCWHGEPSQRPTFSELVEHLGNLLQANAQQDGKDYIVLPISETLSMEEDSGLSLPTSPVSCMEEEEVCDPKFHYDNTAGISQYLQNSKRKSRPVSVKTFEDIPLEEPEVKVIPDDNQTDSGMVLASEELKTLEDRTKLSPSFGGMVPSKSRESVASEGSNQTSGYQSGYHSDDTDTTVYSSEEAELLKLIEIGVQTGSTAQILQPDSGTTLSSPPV

[2] = target: T1, KDR expressed on transiently …; assay: competition with 125I-VEGF on KDR-transfected 293H cells (mock subtracted), peptide at 0.3 µM; settings: remark: other sources report otherwise

B1: biotinylated SEQ ID NO:264 with a JJ spacer (peptide)
peptide: Ac-AGPKWCEEDWYYCMITGTGGGK([AEEA-AEEA-Biotin])-NH2
modifications: disulfide 6-13 (inferred)
Question: Which % inhibition of 125I-labeled VEGF binding [1] does the source give for B1 here?
Answer: The % inhibition of 125I-labeled VEGF binding was 48%.

Question: And the % inhibition of 125I-labeled VEGF binding [2]?
Answer: Its % inhibition of 125I-labeled VEGF binding is 24.4%.
